For assay [1], the target named is C-terminal globular region of the collagen VI α1 chain. Description: SAXS; C-terminal regions in solution (α1, 4.3 mg/ml; α2, 4 mg/ml; α4, 3.5 mg/ml; α6, 3.5 mg/ml) after Superdex200 in 10 mM phosphate buffer, 400 mM NaCl, pH 7.4; EMBL-P12 beamline, PETRAIII; molecular weight from the volume of correlation.
Assay [2] deals with C-terminal globular region of the collagen VI α2 chain. The description is as above.
Assay [3] has as its target C-terminal globular region of the collagen VI α4 chain. Described as above.
The target in assay [4] is monomeric heterotrimeric collagen VI molecule composed of one α1 chain, one α2 chain and one α3 chain (mouse (endogenous in tissue)) (UniProt Q04857). The experiment in a line: immunoelectron microscopy after negative staining; native collagen VI tetramers and microfibrils extracted from E14.5 mouse lungs by collagenase digestion; double labelling for 30 min at 37 °C with colloidal gold-labeled antibodies specific for the N-terminal regions of the long α chains.

The target in assay [5] is monomeric heterotrimeric collagen VI molecule composed of one α1 chain, one α2 chain and one α4 chain (mouse (endogenous in tissue)) (UniProt Q04857). The assay is described as above.
The target of assay [6] is monomeric heterotrimeric collagen VI molecule composed of one α1 chain, one α2 chain and one α5 chain (mouse (endogenous in E14.5 lung)) (UniProt Q04857). Described as above.
Assay [7] deals with monomeric heterotrimeric collagen VI molecule composed of one α1 chain, one α2 chain and one α6 chain (mouse (endogenous in tissue)) (UniProt Q04857). The assay is described as above.

Among the data in paper PMC4777857 are stoichiometry N values, retold here.

As usually defined, the stoichiometry N is the number of molecules, sites or subunits per partner or assembly. “C-terminal globular region of the collagen VI α1 chain (domain or fragment)”: the stoichiometry N in assay [1] stood at 2.
On to “C-terminal globular region of the collagen VI α2 chain (domain or fragment)”, for which the stoichiometry N in assay [2] was 2.
In assay [3], “C-terminal globular region of the collagen VI α4 chain (domain or fragment)” showed a stoichiometry N of 2.
For “monomeric heterotrimeric collagen VI molecule composed of one α1 chain, one α2 chain and one α3 chain (from UniProt Q04857 20-1025; Q02788 26-1034) (complex)”, the stoichiometry N in assay [4] worked out at 4.
In turn, “monomeric heterotrimeric collagen VI molecule composed of one α1 chain, one α2 chain and one α4 chain, Q04857 20-1025; Q02788 26-1034; A2AX52 23-2309” yielded a stoichiometry N in assay [5] of 4.
For the substance “monomeric heterotrimeric collagen VI molecule composed of one α1 chain, one α2 chain and one α5 chain, Q04857 20-1025; Q02788 26-1034; A6H584 19-2640”, the stoichiometry N in assay [6] was 4.
“monomeric heterotrimeric collagen VI molecule composed of one α1 chain, one α2 chain and one α6 chain, Q04857 20-1025; Q02788 26-1034; Q8C6K9 19-2265” showed a stoichiometry N in assay [7] of 4.
